In patent publication US20140086913A1 (Gilead, published 2014):
Like-named read-outs stand apart in the source and are kept apart here.

T1: human DDR2 stably expressed on HEK293 cells (human) (UniProt Q16832)
T1 sequence (looked up): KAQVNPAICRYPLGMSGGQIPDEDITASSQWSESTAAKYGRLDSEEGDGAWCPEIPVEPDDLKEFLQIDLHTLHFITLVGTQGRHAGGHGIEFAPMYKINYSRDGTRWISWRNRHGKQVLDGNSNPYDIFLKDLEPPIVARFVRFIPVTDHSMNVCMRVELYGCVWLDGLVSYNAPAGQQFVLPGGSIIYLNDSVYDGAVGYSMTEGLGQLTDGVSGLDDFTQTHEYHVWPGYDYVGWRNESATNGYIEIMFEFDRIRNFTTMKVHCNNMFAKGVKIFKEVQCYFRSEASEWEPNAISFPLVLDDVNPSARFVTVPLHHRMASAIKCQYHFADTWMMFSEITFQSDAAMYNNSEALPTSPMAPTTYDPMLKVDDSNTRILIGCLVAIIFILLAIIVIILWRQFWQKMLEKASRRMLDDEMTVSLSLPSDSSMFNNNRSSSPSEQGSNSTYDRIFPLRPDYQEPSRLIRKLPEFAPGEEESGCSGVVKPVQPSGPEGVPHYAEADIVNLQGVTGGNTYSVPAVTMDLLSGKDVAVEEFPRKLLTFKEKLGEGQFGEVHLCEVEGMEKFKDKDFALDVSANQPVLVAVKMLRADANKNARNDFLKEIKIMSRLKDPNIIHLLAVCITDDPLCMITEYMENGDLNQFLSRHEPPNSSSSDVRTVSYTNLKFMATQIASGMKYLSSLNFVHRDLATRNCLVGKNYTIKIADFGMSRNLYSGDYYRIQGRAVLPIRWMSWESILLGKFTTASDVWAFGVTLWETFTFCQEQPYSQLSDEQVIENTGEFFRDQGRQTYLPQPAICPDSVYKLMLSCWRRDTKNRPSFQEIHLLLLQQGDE

T2: mouse ECD-DDR1-Fc (mouse; human, UniProt Q03146 22-414)
T2 construct: also called mouse DDR1-ECD; wild-type mouse DDR1-ECD; not shown: human IgG1 Fc of the vector pFuse-hIgG1-Fc1 (Invivogen)
T2 sequence: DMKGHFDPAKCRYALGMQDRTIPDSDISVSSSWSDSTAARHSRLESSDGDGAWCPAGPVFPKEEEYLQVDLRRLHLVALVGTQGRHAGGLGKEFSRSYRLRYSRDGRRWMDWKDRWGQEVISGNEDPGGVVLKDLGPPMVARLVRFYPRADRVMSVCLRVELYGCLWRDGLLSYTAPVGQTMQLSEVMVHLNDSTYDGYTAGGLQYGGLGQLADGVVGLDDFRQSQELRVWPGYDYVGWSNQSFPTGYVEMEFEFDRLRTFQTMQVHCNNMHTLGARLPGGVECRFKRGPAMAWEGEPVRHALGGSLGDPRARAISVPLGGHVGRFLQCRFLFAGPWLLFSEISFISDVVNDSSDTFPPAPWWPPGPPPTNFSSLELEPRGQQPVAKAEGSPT

T3: human DDR2 stably expressed on HEK293 cells (human, UniProt Q16832 22-855)
T3 construct: whole, on cells; also called hDDR2
T3 sequence (looked up): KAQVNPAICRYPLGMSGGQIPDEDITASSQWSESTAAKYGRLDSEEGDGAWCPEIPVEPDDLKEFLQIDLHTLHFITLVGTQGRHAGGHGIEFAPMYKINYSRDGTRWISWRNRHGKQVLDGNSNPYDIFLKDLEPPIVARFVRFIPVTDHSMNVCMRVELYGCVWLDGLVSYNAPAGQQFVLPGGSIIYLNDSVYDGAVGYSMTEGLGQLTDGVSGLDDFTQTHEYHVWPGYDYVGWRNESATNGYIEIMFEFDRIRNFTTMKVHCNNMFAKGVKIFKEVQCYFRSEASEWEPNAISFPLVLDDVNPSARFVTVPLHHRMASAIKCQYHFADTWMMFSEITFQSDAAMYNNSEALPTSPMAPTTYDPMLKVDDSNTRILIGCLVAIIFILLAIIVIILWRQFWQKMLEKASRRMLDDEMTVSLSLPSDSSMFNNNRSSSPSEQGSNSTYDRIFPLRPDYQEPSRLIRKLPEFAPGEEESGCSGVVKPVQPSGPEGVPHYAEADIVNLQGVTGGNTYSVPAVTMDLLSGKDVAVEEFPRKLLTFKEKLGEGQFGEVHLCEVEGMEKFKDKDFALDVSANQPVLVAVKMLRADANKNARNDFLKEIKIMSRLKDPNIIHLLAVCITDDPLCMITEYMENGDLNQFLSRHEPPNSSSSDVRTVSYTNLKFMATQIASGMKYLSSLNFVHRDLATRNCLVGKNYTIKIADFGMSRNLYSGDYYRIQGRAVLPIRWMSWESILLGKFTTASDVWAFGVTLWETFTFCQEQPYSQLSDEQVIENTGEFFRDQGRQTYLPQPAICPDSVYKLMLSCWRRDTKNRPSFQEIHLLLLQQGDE


How the values were obtained:
[1] = target: T1, human DDR2 stably expressed on HEK293 cells (human); experiment: flow cytometry, HEK293/hDDR2
[2] = target: T4, DDR1ECD-Fc (R&D Systems, Catalog #2396-DR) (human, UniProt Q08345 21-416); experiment: ELISA, coated antigen, apparent KD
T4 construct: range 21-416; construct as described for the bought immunogen; also called human ECD-DDR1-Fc; Fc-ECD-DR1; not shown: human IgG1, Pro100-Lys330
Description: (§1) In this study, ELISA was used to determine the affinity of murine anti-DDR1 monoclonal antibodies to the extracellular domain (ECD) of either human or murine DDR1. A 96-well MaxiSorb ELISA plates (Nunc) were coated with 2 μg/mL of one of three purified recombinant tagged proteins: human ECD-DDR1-His protein, human ECD-DDR1-Fc, or mouse ECD-DDR1-Fc overnight at 4° C. The next day, the plates were blocked with 5% bovine serum albumin (BSA, Jackson Immunoresearch) prior to the addition of serially diluted anti-DDR1 monoclonal antibodies. Antibodies were incubated for 1 hr at room temperature. The binding of antibody to the antigen was detected by incubating samples with anti-mouse IgG-HRP (horse radish peroxidase) secondary detection antibody (Jackson Immunoresearch) for 1 hr. After a washing step, 3,3′,5,5″-tetramethylbenzidine (TMB) reagent was added for HRP to produce a colorimetric signal. The reaction was stopped by addition of 1M hydrochloric acid after 2 minutes and measured for absorbance (optical density, OD) at 450λ on a Molecular Devices plate reader. The OD values were plotted against antibody concentration and fitted using a using 4-parameter logistic equation in SoftMax software (Molecular Devices). The apparent affinity constant (KD) was taken from the C-parameter of the equation (y=(A−D)/(1+(x/C)̂B)+D). The apparent affinity constants were summarized (in some cases shown as average values) in Table 10 below. Lower value indicates higher binding affinity of the antibody to the antigen.

[3] = target: T2, mouse ECD-DDR1-Fc; experiment: ELISA, coated antigen, apparent KD
Description: as §1

[4] = target: T5, human ECD-DDR1-His protein (human, UniProt Q08345 21-416); experiment: ELISA, coated antigen, apparent KD
T5 construct: also called huDDR1-ECD-His; DDR1ECD-6Xhis; not shown: His tag
Description: as §1

[5] = target: DDR1 endogenously expressed on human cancer cell lines (T47D, HCT-116, A431) (human) (UniProt Q08345); experiment: flow cytometry, T47D cells
[6] = target: DDR1 with a ProLink Tag (PK) in engineered U20S cells (DiscoveRx), Q08345; experiment: cell-based or functional assay
[7] = target: human DDR1 (isoform B) stably expressed on HEK293 cells (human) (UniProt Q08345); experiment: flow cytometry, HEK293/hDDR1
[8] = target: DDR1 endogenously expressed on human cancer cell lines (T47D, HCT-116, A431) (human) (UniProt Q08345); experiment: cell-based or functional assay
[9] = target: DDR1 endogenously expressed on human cancer cell lines (T47D, HCT-116, A431) (human) (UniProt Q08345); experiment: flow cytometry, HCT116 cells
[10] = target: human DDR1 (isoform B) stably expressed on HEK293 cells (human) (UniProt Q08345); experiment: flow cytometry, HEK293/human DDR1, normalized to empty-vector cells
[11] = target: T4, DDR1ECD-Fc (R&D Systems, Catalog …); experiment: ELISA
[12] = target: DDR1 endogenously expressed on human cancer cell lines (T47D, HCT-116, A431) (human) (UniProt Q08345); experiment: cell-based or functional assay; remark: listed apart in the source
[13] = target: T3, human DDR2 stably expressed on HEK293 …; experiment: flow cytometry, HEK293/hDDR2
Description: Additional monoclonal antibodies were obtained from individual hybridomas in Example 1 and were characterized for their properties.
Cells were cultured in DMEM with 10% FBS and 0.8 mg/mL hygromycin. When cells reached 60-80% confluence, they were centrifuged at 1,200 rpm for 5 minutes, suspended in FACS buffer (1×PBS, 1% BSA), and aliquoted into a 96-well plate at 1×10⁶ cells per well. The anti-DDR1 monoclonal antibodies or appropriate isotype controls at 2 μg per 1×10⁶ cells were added and incubated at 4° C. for 1 hr. The cells were washed twice with FACS buffer then stained with the anti-IgG-PE secondary antibody at 10 μL per well at 4° C. for 1 hr. The cells were washed again and measured for the MFI values or signals using flow cytometry (LSR Fortessa instrument, BD Biosciences). Background MFI signals from vector-only cells (i.e. no DDR1 or DDR2 expression) was subtracted from those of the cells treated with antibodies. Higher MFI values or signals indicated increased binding or specificity of the anti-DDR1 antibodies to the DDR1 on the cell surface.

human DDR1 (isoform B) stably expressed on HEK293 cells (human), sequence (Q08345 19-913): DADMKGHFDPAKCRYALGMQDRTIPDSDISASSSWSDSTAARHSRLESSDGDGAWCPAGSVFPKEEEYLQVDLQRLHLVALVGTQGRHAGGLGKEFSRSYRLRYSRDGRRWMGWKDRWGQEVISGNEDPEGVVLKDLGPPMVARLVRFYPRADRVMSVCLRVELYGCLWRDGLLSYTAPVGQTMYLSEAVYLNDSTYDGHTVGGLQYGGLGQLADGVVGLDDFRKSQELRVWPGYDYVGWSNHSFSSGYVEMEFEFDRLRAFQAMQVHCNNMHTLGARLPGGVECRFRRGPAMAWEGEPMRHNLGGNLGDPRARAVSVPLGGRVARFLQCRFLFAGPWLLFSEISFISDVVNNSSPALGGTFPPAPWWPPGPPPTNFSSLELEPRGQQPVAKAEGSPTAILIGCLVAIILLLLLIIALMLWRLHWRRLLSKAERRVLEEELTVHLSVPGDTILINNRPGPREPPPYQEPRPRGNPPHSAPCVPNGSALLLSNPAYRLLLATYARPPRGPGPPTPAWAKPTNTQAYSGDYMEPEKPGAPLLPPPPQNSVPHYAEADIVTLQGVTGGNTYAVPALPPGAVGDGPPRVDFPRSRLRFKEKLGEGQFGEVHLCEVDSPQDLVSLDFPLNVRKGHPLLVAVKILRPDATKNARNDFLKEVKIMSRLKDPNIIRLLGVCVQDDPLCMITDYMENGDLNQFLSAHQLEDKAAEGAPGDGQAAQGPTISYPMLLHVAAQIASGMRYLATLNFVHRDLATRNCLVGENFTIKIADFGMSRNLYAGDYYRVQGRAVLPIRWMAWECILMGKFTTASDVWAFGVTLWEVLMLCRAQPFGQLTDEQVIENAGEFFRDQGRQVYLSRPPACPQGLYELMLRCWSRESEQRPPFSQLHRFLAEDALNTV

| MFI [1] [MFI] | Kd [2] [nM] | Kd [3] [nM] | Kd [4] [nM] | MFI [5] [MFI] | Mean EC50, DDR1 Tyr513 phosphorylation assay (U20S) [6] [nM] | MFI [7] [MFI] | EC50, DDR1 phospho-specific ELISA (T47D) [8] [nM] | EC50, cluster formation assay (A431 cells) [8] [nM] | Maximal inhibition, DDR1 phospho-specific ELISA (T47D) [8] [%] | MFI [9] [MFI] | MFI [10] [MFI] | Kd [11] [nM] | EC50, DDR1 phospho-specific ELISA (T47D) [12] [nM] | Maximal inhibition, DDR1 phospho-specific ELISA (T47D) [12] [%] | NPI of cluster formation at 66 nM (A431 cells) [12] [%] | MFI [13] [MFI] | EC50, cluster formation assay (A431 cells) [12] [nM] | Binder |
| --- | --- | --- | --- | --- | --- | --- | --- | --- | --- | --- | --- | --- | --- | --- | --- | --- | --- | --- |
| 313 | 0.669 | 2.89 | 0.418 | 1220 | 2.2 | 3140 | 4.67 | 1.24 | 100 | 572 | – | – | – | – | – | – | – | AB2080 (antibody, V domains shown, mouse hybridoma mAb) VH: EVQLQQSGPELVKPGASMKISCKASGYSFTGYTMTWVKQSHGKNLEWIGLINPYIGVTSYNQKFKGKATLTVDKSSSTAYMELLSLTSEDSAVYYCARLYDRGGRYAMDYWGQGTSVTVSS VL: QIVLTQSPAIMSASPGEKVPMTCSASSSVSFMHWYQQKSGTSPKRWIYDTSKLASGVPARFSGSGSGTSYSLTISNMEAEDAATYYCQQWNSDPWTFGGGSKL |
| – | 0.298 | 17.9 | 0.161 | 4670 | 1.7 | 6350 | – | – | – | 1540 | 6350 | 0.298 | 0.39 | 100 | 115 | 203 | – | AB2026 (antibody, V domains shown, mouse hybridoma mAb) VH: EVQLVESGGGLVQPGGSLKFSCAASGFTFSSYGMSWVRQTPDKRLELVAIINSHGFSTYYPDSVKGRFTISRDNAKNTLYLQMSSLKSEDTAIYYCARGGYGNYGMDYWGQGTSVTVSS VL: DIVLTQSPASLAVSLGQRATISCRASESVDSYGNSFMHWYQQKVGQPPKLLIFRASNIESGIPARFSGSGSRTDFTLTINSVEADDVATYYCQQSNEAPYTFGGGTKLEIKR |
| – | 0.257 | 17.3 | 0.148 | 4600 | 0.99 | 8540 | – | – | – | 1460 | 8540 | 0.257 | 0.4 | 100 | 113 | 195 | 0.63 | AB2031 (antibody, V domains shown, mouse hybridoma mAb) VH: EVQLVESGGGLVQPGGSLKFSCAASGFTFSSYGMSWVRQTPDKRLELVAIINSHGFSTYYPDSVKGRFTISRDNAKNTLYLQMSSLKSEDTAIYYCARGGYGNYGMDYWGQGTSVTVSS VL: DIVLTQSPASLAVSLGQRATISCRASESVDSYGNSFMHWYQQKVGQPPKLLIFRASNIESGIPARFSGSGSRTDFTLTINSVEADDVATYYCQQSNEAPYTFGGGTKLEIKR |
